Data: article PMC3750625

How the values were obtained:
[1] = target: Wild type IN 1–105, the isolated N-terminal domain (NTD) of Moloney murine leukemia virus integrase (Moloney murine leukemia virus) (UniProt P03355); experiment: SEC; Superdex S-200, nondenaturing, 10 mM Tris pH 7.5, 0.5 M NaCl, 1 mM DTT, 5% glycerol; BS3-crosslinked and unmodified IN 1–105 compared
[2] = target: Wild type IN 1–105, the isolated N-terminal domain (NTD) of Moloney murine leukemia virus integrase (Moloney murine leukemia virus) (UniProt P03355); experiment: cross-linking; 56 μM IN 1–105 with 100 μM BS3 (0 to 300 μM tested), 50 mM Hepes pH 7.8, 25°C, 35 min, stopped with 50 mM lysine pH 8.0; SDS-PAGE; monomer and dimer bands digested with trypsin or chymotrypsin and read by LC-MS/MS or MALDI-TOF/TOF
[3] = target: K104C IN 1–105 (Moloney murine leukemia virus); experiment: SEC; Superdex S-200 of the BMOE-crosslinked reaction mixture of K104C IN 1–105; data not shown
[4] = target: K104C IN 1–105 (Moloney murine leukemia virus); experiment: cross-linking; 50 μM IN 1–105 K104C with 1 mM BMOE (8 Å) or BM(PEG)2 (14.7 Å), 50 mM Tris–HCl pH 7.0, 10 μM ZnSO4, on ice 60 min, quenched with 10 mM DTT; SDS-PAGE

Substance	percent eluting at the position of the dimer [1] [%]	stoichiometry N [1]	percent of the protein crosslinked [2] [%]	stoichiometry N [2]	stoichiometry N [3]	crosslinking extent with BM(PEG)2 [4] [%]	crosslinking extent with BMOE [4] [%]	stoichiometry N [4]
Wild type IN 1–105, the isolated N-terminal domain (NTD) of Moloney murine leukemia virus integrase (from UniProt P03355 2-106) (domain or fragment)	95	2	50	2	–	–	–	–
K104C IN 1–105 (domain or fragment)	–	–	–	–	2	70	65	2
